The target of assay [1] is T1, EBV LMP2 peptide on HLA-A*02:01 (human).
T1 peptide: CLGGLLTMV
Nature of the assay: intracellular IFN-gamma; peptide titration on APCs, E:T 1:1, overnight; FIG. 6F; full-length, on cells.

Assay [2] addresses T2, peptide on HLA-A*02:01 (human).
T2 peptide: SLGGLLTMV
Described as above.

The target of assay [3] is T1, EBV LMP2 peptide on HLA-A*02:01. Nature of the assay: intracellular IFN-gamma; peptide titration on APCs, E:T 1:1, overnight; a different experiment, FIG. 6G; full-length, on cells.
Assay [4] addresses T2, peptide on HLA-A*02:01. Described as above.
Assay [5] addresses EBV LMP2 peptide on HLA-A11 (human). Kind of assay: intracellular IFN-gamma; peptide titration on K562-A11, E:T 1:1, overnight; FIG. 9; full-length, on cells. Particulars: chains Valpha:Vbeta.

Positions count from the first letter of the chain named.

B1: L208 (TCR, V domains shown)
Valpha: KQEVTQIPAALSVPEGENLVLNCSFTDSAIYNLQWFRQDPGKGLTSLLLIQSSQREQTSGRLNASLDKSSGRSTLYIAASQPGDSATYLCAVLMDSNYQLIWGAGTKLIIKP
Vbeta: DAGITQSPRYKITETGRQVTLMCHQTWSHSYMFWYRQDLGHGLRLIYYSAAADITDKGEVPDGYVVSRSKTENFPLTLESATRSQTSVYFCASSEDGMNTEAFFGQGTRLTVV
With B1, the EC50 of peptide in assay [1] was found to be 0.0392 µg/mL; with peptide on HLA-A*02:01 [2], 0.0183 µg/mL; in assay [3], 0.261 µg/mL; in the assay with peptide on HLA-A*02:01 [4], 0.125 µg/mL.

B2: L11-3 (protein)
chain 1: GQQVMQIPQYQHVQEGEDFTTYCNSSTTLSNIQWYKQRPGGHPVFLIQLVKSGEVKKQKRLTFQFGEAKKNSSLHITATQTTDVGTYFCADPDGLIFGQGTELSVKP
chain 2: DAGVIQSPRHEVTEMGQEVTLRCKPISGHNSLFWYRQTMMRGLELLIYFNNNVPIDDSGMPEDRFSAKMPNASFSTLKIQPSEPRDSAVYFCASSLGAGAGYGYTFGSGTRLTVV
The molecule B2 displayed an EC50 of peptide in assay [5] of 0.3 nM.

B3: L11-6 (protein)
chain 1: GIQVEQSPPDLILQEGANSTLRCNFSDSVNNLQWFHQNPWGQLINLFYIPSGTKQNGRLSATTVATERYSLLYISSSQTTDSGVYFCAVDGGNKLVFGAGTILRVKS
chain 2: B2 chain 2 with A100S, Y102W, G103E, Y104Q, T105Y, S108P, V115T
In assay [5], B3 gave an EC50 of peptide of 2 nM.

For the origin of these results see US20230227527A1 (published 2023).
